# From the RNAGym collection of RNA variant scans (doi:10.1073/pnas.2313332121)
# Fewer inactive variants are shown than the library holds.
# B1: TPR 5TU (parent)
# chain: GGAUCUUCUCGAUCUAACAAAAAAGACAAAUCUGCCACAAAGCUUGAGAGCAUCUUCGGAUGCAGAGGCGGCAGCCUUCGGUGGCGCGAUAGCGCCAACGUUCUCAACUAUGACACGCAAAACGCGUGCUCCGUUGAAUGGAGUUUAUCAUG
# Variants of: B1
# Assay: polymerase ribozyme fitness, log enrichment relative to wild type (log ratio); higher = more active; in vitro selection for triplet polymerase activity
# Summary of the method: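 Only genotypes with ≥10 input reads and ≥1 read per output were kept after Illumina sequencing of input and output libraries. These libraries were PCR-built, transcribed mutants of each subunit of a heterodimeric triplet polymerase ribozyme, each put through one triplicate in vitro selection round with frozen incubation at −7 °C, gel excision of extended constructs, streptavidin-bead capture and RT-PCR. Fitness is a logarithmic ratio of genotype enrichment to wild-type enrichment, from inverse-variance-weighted replicate averages, with the logarithm in base 2.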
row,Variant,polymerase ribozyme fitness (log ratio)
1,U15G C18G G50C U53G G92A U148G,≤ -4.2
2,A16C G58C A60G G83U C116U,-0.784
3,A16C C87U G128U,≤ -4.2
4,U15G C99U A142U,-1.77
5,A16C G92C,-1.11
6,U15G C51A A52C C69U C85A,≤ -4.2
7,U15G A40G C96U A97G G141A,-3.18
8,U15G G92U A147U,0.901
9,A16C G94A,-1.78
10,U15G C85U,-0.0947
11,U15G C69A C96U,-1.09
12,A16C A37C A40C C63U A64U C69G C76U G141C,≤ -4.2
13,A16C A17U A20U C38A C57U A60C G84A C116G,≤ -4.2
14,A16G A17U A41U C93U C125U U134G,-4.05
15,A16C A26G C35A A52G C87U,-3.98
16,U15G G88A,-4.08
17,U15G G94C A115C C116G,-3.85
18,A16C G83A G94A,-2.79
19,U15G G50U U61A C93G C105U A107G,≤ -4.2
20,U15G A47C C57U C96A C108G,≤ -4.2
21,A16C C57U A60G G86U C125U U134G,-4.12

row,Variant,polymerase ribozyme fitness (log ratio)
1,A16G A17C U31A U55G C57G A115C U135A,-3.86
2,A16C C51A A89U G94A A98U,-3.95
3,U15G G34A C75A A150U,≤ -4.2
4,A16C A22U A89U C93U,-3.06
5,U15G C43U G59A G94U,≤ -4.2
6,A16G A17G C18A G58C A60G C95A U144C A150C,≤ -4.2
7,A16C A20C A39U G42C C76A C95A,≤ -4.2
8,U15G G48A U53A A73G C85A,≤ -4.2
9,U15G C27A U146A,≤ -4.2
10,A16C G62C,-2.47
11,A16C C32U C72G C75A G86C C87G C99U A107U A120U G124U,≤ -4.2
12,U15G C27U G83A A121C,-2.52
13,A16C A20C C85A G141C,-2.3
14,U15G U56G U77C C87G G94A U104G A106U C123U,≤ -4.2
15,A16C A24G U56C U77C G86A U104G U139A A142G,≤ -4.2
16,U15G C18U U56C G83A C87U,-1.58
17,A16C C18U C38U A39C A49U G67A U134G,≤ -4.2
18,A16C A20U A28U C35A G50U G59C G84A C87G C96U C103A U148A,≤ -4.2
19,A16C G59C,-0.987
20,A16C G86U,-2.65
21,A16C G112U A150U,≤ -4.2

row,Variant,polymerase ribozyme fitness (log ratio)
1,U15G A98G A122C G124U,-1.76
2,A16C U82G,-1.06
3,A16C U61A A89G C118A C149G,≤ -4.2
4,A16C A73U G88C C95G A98U,≤ -4.2
5,A16C G94U A107G C116A C132U A142G,≤ -4.2
6,A16G A17G U56G U61G G68A C72U C114G G143U,≤ -4.2
7,A16C C57U C129U G143A,-1.91
8,A16C U44G A47G C51A A60C U77A,≤ -4.2
9,A16C U144G,-0.499
10,A16C U44A C69G C75G A91U C114G G117C,≤ -4.2
11,A16C G88A C116G,-4.19
12,U15G G46C C93A C95U,≤ -4.2
13,U15G C72U C87A U134A A150C U151G,≤ -4.2
14,U15G U77A U78G G88U C149G,≤ -4.2
15,A16C A113U C118G,-3.27
16,U15G A47C G83C,-1.85
17,A16C A22U G62A G74A G81C A106G G141C,≤ -4.2
18,A16G A17G C57U A64C A91U C95U C118G G124A G126A G133C,≤ -4.2
19,A16C U33C U77A,≤ -4.2
20,A16C U31A C32A G92C A97C A98C C103A C116U C125U,≤ -4.2
21,A16C G42U G58C G84U G100A U102G A137U U144C,≤ -4.2

row,Variant,polymerase ribozyme fitness (log ratio)
1,A16C U45G C114U,-3.74
2,U15G C57A G86U A122G,-1.4
3,U15G A49C G65C A120C A142C,≤ -4.2
4,U15G C93A U109C,≤ -4.2
5,A16C C18G A47U G92A U101A,≤ -4.2
6,U15G C96U,-1.19
7,U15G C96A,-0.302
8,U15G A89C A119U,-0.888
9,A16C C36U G59C,-2.53
10,A16C A37U G58A G80U C85G C93G A150G,≤ -4.2
11,A16C A49U C85U U146C,-2.7
12,A16C U31C G50A G86A,-3.16
13,U15G C76G G86C A122U G133C A142G U148G,≤ -4.2
14,A16C G94A C116G,-0.496
15,A16C A40C G83A A97G,-0.914
16,A16C C36A G46C G68C C93U G112U A115C A122U G143U,≤ -4.2
17,A16C C76G C85U G133C C149A,≤ -4.2
18,U15G A52U,-1.59
19,A16G A19C G80C C87A A150U,≤ -4.2
20,U15G C35G G50C C96G G143U,≤ -4.2
21,U15G U55G G71C C85U A142U C149U,≤ -4.2
